{
  "source": "the RNAGym collection of RNA variant scans (doi:10.1073/pnas.2313332121)",
  "parents": {"B1": {"name": "TPR t1 (parent)", "chain": "GACCAAUCUGCCCUCAGAGCUCGAGAACAUCUUCGGAUGCAGAGGAGGCAGGCUUCGGUGGCGCGAUAGCGCCAACGUCCUCAACCUCCAAUGCAUCCCACCACAUGAUGAUGCCUGAAGAGCCUUGGUUUUUUG"}},
  "data": [
    {"variants_of": "B1", "assay": "polymerase ribozyme fitness, log enrichment relative to wild type (log ratio); higher = more active; in vitro selection for triplet polymerase activity", "outline": "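Fitness measures genotype enrichment against wild-type enrichment on a logarithmic scale, with inverse-variance-weighted averaging of replicates. The logarithm is base 2, and genotypes were kept only with ≥10 input reads and ≥1 read per output in Illumina sequencing. The sequenced libraries came from one triplicate in vitro selection round, including frozen incubation at −7 °C, of PCR-built, transcribed mutant libraries of each subunit of a heterodimeric triplet polymerase ribozyme.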", "values": [
      {"variant": "C34A G47U G61A C86U", "polymerase ribozyme fitness (log ratio)": -4.04},
      {"variant": "C34G G44A A90G C101U A121U", "polymerase ribozyme fitness (log ratio)": -5.28},
      {"variant": "C34A A50U G61U", "polymerase ribozyme fitness (log ratio)": -3.7},
      {"variant": "U33A G63U", "polymerase ribozyme fitness (log ratio)": -6.72},
      {"variant": "U33C A121C", "polymerase ribozyme fitness (log ratio)": -2.95},
      {"variant": "C34A C89U U112A U133A", "polymerase ribozyme fitness (log ratio)": -1.77},
      {"variant": "U33G G63U A90U A111G G120C", "polymerase ribozyme fitness (log ratio)": -6.96},
      {"variant": "C34A C73U A74U", "polymerase ribozyme fitness (log ratio)": -3.25},
      {"variant": "C34A A37U G48U C64G A68G C94G G120U", "polymerase ribozyme fitness (log ratio)": -7.45},
      {"variant": "C34U C73A A111U C114G G135A", "polymerase ribozyme fitness (log ratio)": -6.34},
      {"variant": "U32C U109G", "polymerase ribozyme fitness (log ratio)": -4.99},
      {"variant": "U33C A46G C88U A121U", "polymerase ribozyme fitness (log ratio)": -6.28},
      {"variant": "U33C G61U", "polymerase ribozyme fitness (log ratio)": -3.04},
      {"variant": "U33C G61C", "polymerase ribozyme fitness (log ratio)": -5.84},
      {"variant": "C34A A50U G71C C123G", "polymerase ribozyme fitness (log ratio)": -4.86},
      {"variant": "C34A G110U A118U", "polymerase ribozyme fitness (log ratio)": -6.14},
      {"variant": "U32G A50G G69U C88G A121C", "polymerase ribozyme fitness (log ratio)": -3.17},
      {"variant": "U32G", "polymerase ribozyme fitness (log ratio)": -6.71},
      {"variant": "U32G G60A", "polymerase ribozyme fitness (log ratio)": -7.06},
      {"variant": "C34A G39U C98A", "polymerase ribozyme fitness (log ratio)": -3.78},
      {"variant": "C34G G61A G120A", "polymerase ribozyme fitness (log ratio)": -5.72},
      {"variant": "U32C U106G U112G", "polymerase ribozyme fitness (log ratio)": -0.955},
      {"variant": "U33C G63A U78C C80A C99A C102A U116G", "polymerase ribozyme fitness (log ratio)": -6.04},
      {"variant": "C34A C85U A118U U130A U132C", "polymerase ribozyme fitness (log ratio)": -3.6},
      {"variant": "C34G G35U G60C G127C", "polymerase ribozyme fitness (log ratio)": -7.24},
      {"variant": "U32C C104U", "polymerase ribozyme fitness (log ratio)": 0.382},
      {"variant": "C34A G117A", "polymerase ribozyme fitness (log ratio)": -3.53},
      {"variant": "C34A G117C", "polymerase ribozyme fitness (log ratio)": -4.31},
      {"variant": "U32C C124G G135U", "polymerase ribozyme fitness (log ratio)": 0.917},
      {"variant": "U33A C72A U78C U87A", "polymerase ribozyme fitness (log ratio)": -5.41},
      {"variant": "U32G G48U C72G C102U G120C", "polymerase ribozyme fitness (log ratio)": -7.94},
      {"variant": "C34A U59A C70U", "polymerase ribozyme fitness (log ratio)": -5.58},
      {"variant": "C34U", "polymerase ribozyme fitness (log ratio)": -4.05},
      {"variant": "C34G", "polymerase ribozyme fitness (log ratio)": -6.09},
      {"variant": "C34A", "polymerase ribozyme fitness (log ratio)": -2.52},
      {"variant": "C34G G45C G69A A90U U92A G113A", "polymerase ribozyme fitness (log ratio)": -7.28},
      {"variant": "U33G G36A A111U", "polymerase ribozyme fitness (log ratio)": -7.33},
      {"variant": "C34G A50G", "polymerase ribozyme fitness (log ratio)": -6.59},
      {"variant": "U33C G69A A83C U96C A119U C124A G127U", "polymerase ribozyme fitness (log ratio)": -5.27},
      {"variant": "U32C C72G", "polymerase ribozyme fitness (log ratio)": -0.273},
      {"variant": "U32C C72A", "polymerase ribozyme fitness (log ratio)": 0.0616},
      {"variant": "U33A A37U U55C A100C", "polymerase ribozyme fitness (log ratio)": -6.04},
      {"variant": "U33A U116C", "polymerase ribozyme fitness (log ratio)": -6.14},
      {"variant": "C34G G63U C70U", "polymerase ribozyme fitness (log ratio)": -6.08},
      {"variant": "U33A U112C G122C", "polymerase ribozyme fitness (log ratio)": -2.34},
      {"variant": "C34G G44A G71A A90G C101U A121U", "polymerase ribozyme fitness (log ratio)": -6.41},
      {"variant": "C34A A37U C82G", "polymerase ribozyme fitness (log ratio)": -4.35},
      {"variant": "C34A G69U G135U", "polymerase ribozyme fitness (log ratio)": -0.532},
      {"variant": "C34G A68C G113U U126A U133C", "polymerase ribozyme fitness (log ratio)": -5.64},
      {"variant": "C34A C70U G120C", "polymerase ribozyme fitness (log ratio)": -4.45},
      {"variant": "U33C C101A A121U", "polymerase ribozyme fitness (log ratio)": -4.76},
      {"variant": "U33C C79U", "polymerase ribozyme fitness (log ratio)": -4.51},
      {"variant": "U33G C72G C86A A91C", "polymerase ribozyme fitness (log ratio)": -7.55},
      {"variant": "C34A A103C", "polymerase ribozyme fitness (log ratio)": -4.26},
      {"variant": "C34U C62G", "polymerase ribozyme fitness (log ratio)": -6.83},
      {"variant": "C34A A119G", "polymerase ribozyme fitness (log ratio)": -2.03},
      {"variant": "C34A C72A C73A C97U", "polymerase ribozyme fitness (log ratio)": -3.88},
      {"variant": "C34G C86U", "polymerase ribozyme fitness (log ratio)": -6.51},
      {"variant": "U33G A84C", "polymerase ribozyme fitness (log ratio)": -6.66},
      {"variant": "U33C G42C C99G A105G G113C U116A C123G C124A U132C", "polymerase ribozyme fitness (log ratio)": -7.71},
      {"variant": "C34A G61A C94A", "polymerase ribozyme fitness (log ratio)": -3.89},
      {"variant": "C34U A100C", "polymerase ribozyme fitness (log ratio)": -3.69},
      {"variant": "U33A C62U", "polymerase ribozyme fitness (log ratio)": -5.03},
      {"variant": "C34G C53G C72A C104A", "polymerase ribozyme fitness (log ratio)": -4.72},
      {"variant": "C34A U59C G127C", "polymerase ribozyme fitness (log ratio)": -4.66},
      {"variant": "U32C G71U U129A", "polymerase ribozyme fitness (log ratio)": -1.48},
      {"variant": "U32C C86U C101U C114A", "polymerase ribozyme fitness (log ratio)": -4.6},
      {"variant": "C34A C53A G61C", "polymerase ribozyme fitness (log ratio)": -5.6},
      {"variant": "U33G G69A", "polymerase ribozyme fitness (log ratio)": -7.83},
      {"variant": "C34G G57C C72A A100C", "polymerase ribozyme fitness (log ratio)": -4.64},
      {"variant": "C34A A43U G61A C88U A119G A121C", "polymerase ribozyme fitness (log ratio)": -4.91},
      {"variant": "U32C C73U A118G", "polymerase ribozyme fitness (log ratio)": -0.657},
      {"variant": "C34A C94A", "polymerase ribozyme fitness (log ratio)": -4.19},
      {"variant": "C34U C88G C123G", "polymerase ribozyme fitness (log ratio)": -3.83},
      {"variant": "C34G C53G C104A", "polymerase ribozyme fitness (log ratio)": -4.3},
      {"variant": "U33G C49G G58C A121C", "polymerase ribozyme fitness (log ratio)": -6.04},
      {"variant": "U33C G63U A111U A121C C124A", "polymerase ribozyme fitness (log ratio)": -6.83},
      {"variant": "U33G C34A G48U G117C", "polymerase ribozyme fitness (log ratio)": -7.42},
      {"variant": "C34A A37C A118G", "polymerase ribozyme fitness (log ratio)": -2.59},
      {"variant": "C34U G44A G69A", "polymerase ribozyme fitness (log ratio)": -7.2},
      {"variant": "U33G C49G C53G G61U", "polymerase ribozyme fitness (log ratio)": -7.57},
      {"variant": "C34A C88U", "polymerase ribozyme fitness (log ratio)": -2.2},
      {"variant": "C34A G48A", "polymerase ribozyme fitness (log ratio)": -3.24},
      {"variant": "U33G C82A", "polymerase ribozyme fitness (log ratio)": -5.59}
    ]}
  ]
}
